Legend:
Test in all cases: flow cytometry on cells displaying the construct
[1] = target: T1, CID1881 (human-chicken GUCY2c chimera) (human/chicken)
T1 chain: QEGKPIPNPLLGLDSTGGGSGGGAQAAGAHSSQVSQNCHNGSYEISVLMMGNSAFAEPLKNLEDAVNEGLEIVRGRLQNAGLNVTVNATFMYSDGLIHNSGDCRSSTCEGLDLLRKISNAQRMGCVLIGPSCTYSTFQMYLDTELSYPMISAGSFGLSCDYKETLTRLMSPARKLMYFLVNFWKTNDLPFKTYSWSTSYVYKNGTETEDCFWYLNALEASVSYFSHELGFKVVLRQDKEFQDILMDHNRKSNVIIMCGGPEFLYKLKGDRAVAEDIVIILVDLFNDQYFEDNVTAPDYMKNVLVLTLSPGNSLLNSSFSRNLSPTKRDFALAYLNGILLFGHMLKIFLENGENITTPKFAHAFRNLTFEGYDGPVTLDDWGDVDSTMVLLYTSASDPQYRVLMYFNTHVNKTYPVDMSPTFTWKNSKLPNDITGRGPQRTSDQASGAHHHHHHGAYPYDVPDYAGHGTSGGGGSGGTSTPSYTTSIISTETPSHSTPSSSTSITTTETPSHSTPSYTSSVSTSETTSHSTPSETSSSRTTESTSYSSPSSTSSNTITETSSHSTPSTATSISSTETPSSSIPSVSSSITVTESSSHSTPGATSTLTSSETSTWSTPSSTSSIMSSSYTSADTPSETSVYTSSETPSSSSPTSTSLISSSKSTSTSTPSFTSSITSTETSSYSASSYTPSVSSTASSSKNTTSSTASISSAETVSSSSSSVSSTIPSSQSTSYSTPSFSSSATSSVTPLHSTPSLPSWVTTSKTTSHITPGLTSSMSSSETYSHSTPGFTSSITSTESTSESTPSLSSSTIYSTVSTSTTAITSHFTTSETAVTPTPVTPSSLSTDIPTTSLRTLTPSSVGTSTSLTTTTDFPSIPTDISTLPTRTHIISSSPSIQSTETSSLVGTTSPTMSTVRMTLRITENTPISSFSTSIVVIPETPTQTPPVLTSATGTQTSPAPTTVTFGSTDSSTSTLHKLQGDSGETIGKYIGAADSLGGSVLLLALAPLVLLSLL

[2] = target: T2, CID1939 (reverse chimera, chicken GUCY2c with human residues) (chicken/human)
T2 chain: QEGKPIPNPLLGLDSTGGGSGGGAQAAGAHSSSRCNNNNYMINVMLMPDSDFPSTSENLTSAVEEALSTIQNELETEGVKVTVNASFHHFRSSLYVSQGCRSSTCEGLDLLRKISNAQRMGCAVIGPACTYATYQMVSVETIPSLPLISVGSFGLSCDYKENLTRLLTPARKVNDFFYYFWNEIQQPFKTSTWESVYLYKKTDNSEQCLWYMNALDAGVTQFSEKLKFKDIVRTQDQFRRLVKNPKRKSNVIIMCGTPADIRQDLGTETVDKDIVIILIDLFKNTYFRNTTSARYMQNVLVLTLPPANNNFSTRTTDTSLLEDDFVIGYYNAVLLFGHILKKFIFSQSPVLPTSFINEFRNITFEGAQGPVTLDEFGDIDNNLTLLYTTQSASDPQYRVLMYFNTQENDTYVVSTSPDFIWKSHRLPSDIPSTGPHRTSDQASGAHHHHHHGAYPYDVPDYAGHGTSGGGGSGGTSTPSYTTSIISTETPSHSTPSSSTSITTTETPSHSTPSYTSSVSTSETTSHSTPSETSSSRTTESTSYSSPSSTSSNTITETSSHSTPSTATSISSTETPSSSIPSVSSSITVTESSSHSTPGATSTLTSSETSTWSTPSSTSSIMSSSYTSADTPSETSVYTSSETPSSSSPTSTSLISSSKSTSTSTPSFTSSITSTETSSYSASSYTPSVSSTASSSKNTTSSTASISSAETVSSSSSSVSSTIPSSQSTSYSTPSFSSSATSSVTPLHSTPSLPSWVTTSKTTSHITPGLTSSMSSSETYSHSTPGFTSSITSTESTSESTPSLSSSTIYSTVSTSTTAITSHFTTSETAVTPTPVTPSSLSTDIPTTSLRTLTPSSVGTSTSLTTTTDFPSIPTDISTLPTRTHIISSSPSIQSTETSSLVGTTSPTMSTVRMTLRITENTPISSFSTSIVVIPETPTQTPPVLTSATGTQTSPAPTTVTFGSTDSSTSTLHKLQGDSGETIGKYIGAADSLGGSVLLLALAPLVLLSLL

[3] = target: CID1944 (human GUCY2c point mutant) (human)
[4] = target: CID1948 (human GUCY2c point mutant) (human)
[5] = target: CID1950 (human GUCY2c point mutant) (human)

Measured: binding result

B1: GUCY2C-1608 (bispecific antibody)
chain 1: DIQLTQSPSSLSASVGDRVTITCRASESVDYYGSSLLQWYQQKPGKAPKLLIYAASKLASGVPSRFSGSGSGTDFTLTISSLQPEDFATYYCQQTRKAYTFGQGTKLEIKGGGSGGGGEVQLVESGGGLVQPGGSLRLSCAASGFTFSDYYMTWVRQAPGKGLEWVAFIRNQARGYTSDHNPSVKGRFTISRDNAKNSLYLQMNSLRAEDTAVYYCARDRPSYYVLDYWGQGTTVTVSSGCPPCPAPEAAGAPSVFLFPPKPKDTLMISRTPEVTCVVVDVSHEDPEVKFNWYVDGVEVHNAKTKPREEQYNSTYRVVSVLTVLHQDWLNGKEYKCKVSNKALPAPIEKTISKAKGQPREPQVCTLPPSREEMTKNQVSLWCLVKGFYPSDIAVEWESNGQPENNYKTTPPVLDSDGSFFLYSKLTVDKSRWQQGNVFSCSVMHEALHNHYTQKSLSLSPG
chain 2: DIQMTQSPSSLSASVGDRVTITCTSSQSLFNVRSQKNYLAWYQQKPGKAPKLLIYWASTRESGVPSRFSGSGSGTDFTLTISSLQPEDFATYYCKQSYDLFTFGGGTKVEIKGGGGSGGGGEVQLVESGGGLVQPGGSLRLSCAASGFTFSSYWMHWVRQAPGKGLEWIGEIKPSNELTNVHEKFKDRFTISVDKAKNSAYLQMNSLRAEDTAVYYCTRTITTTEGYWFFDVWGQGTLVTVSSGCPPCPAPEAAGAPSVFLFPPKPKDTLMISRTPEVTCVVVDVSHEDPEVKFNWYVDGVEVHNAKTKPREEQYNSTYRVVSVLTVLHQDWLNGKEYKCKVSNKALPAPIEKTISKAKGQPREPQVYTLPPCREEMTKNQVSLSCAVKGFYPSDIAVEWESNGQPENNYKTTPPVLDSDGSFFLVSKLTVDKSRWQQGNVFSCSVMHEALHNHYTQKSLSLSPG
notes: also called GUCY2c CD3 bispecific
binds: all assays above

Reference: patent US20230340151A1 (Pfizer, published 2023)
